Reference: a protein production outcome set (Wang et al. 2014)

Assay: label from the status in PepcDB records

For “MVRNMLIESVLFLAAGLFMLSYGSDWFVLGASRVAKQFNISSFVIGATIVAFGTSLPEIVTSAYAASTGSVELAVGNALGSCIANIGLVLGLSLIISTVFIKNRSVLKNGYLYIIYTIIFTAIGYNGFSFFDGIFLLFLLLVYVVYTIKSGEMDDEEHEKSITFKKAIIYLLIGLLFVILGSSFFVDGAKGLASAFGVSEKIIGFTIVAFGTSLPELSVSFAAARQKLGGIVIGNVIGSNIANMFGALAIASIIHEIPAVKFELSVNILMVLLLIAMMSKEKIKAVLNLNSTKEYLSKITKADGLILILIYLLFVLGLTGIF”, the protein production was “failed”.
With “MSSLLPEKWGEALERVHDKVGHFLTRVMPWKKQEHFPERITADTLPAFMQSGGPLLDMHETADELIIRAEVPGLKNDDFSVGIVGRRLTIKGEKNIVRERKGGDGCLISECRYGSFARTLQLPYEIDEKAIAADLKHGVLTIRLPKPEKGRHARYRVPIS” the protein production was “failed”.
For “MEAVIFDMDGVLMDTEPLYFEAYRRVAESYGKPYTEDLHRRIMGVPEREGLPILMEALEIKDSLENFKKRVHEEKKRVFSELLKENPGVREALEFVKSKRIKLALATSTPQREALERLRRLDLEKYFDVMVFGDQVKNGKPDPEIYLLVLERLNVVPEKVVVFEDSKSGVEAAKSAGIERIYGVVHSLNDGKALLEAGAVALVKPEEILNVLKEVL”, the protein production was “not failed”.
In the case of “YLKVFDLDWHPDGMLDAKPALASADWKGLAELAQLSHKALEDAGLPQFEGSNAWAISGSRTQSGKPILAGDPHIRFSVPSVWYEAQLSAPGFELYGHFPALNPFAFLGHNMDFGWSLTMFQNDDVDLIAEKTNPDNPNQVWYHGQWVDMKRTEQQIAVKGQAPVTLTLIESPHGPIVNNVMGKNAGQTPIAMWWSFLVSANPVLDGFYDANRADTLDKMRSAAEKIQSPGLNIVWANAKGDIGWWAAAQLPIRPEGVNPGFILDGSTAQADKLGFYPFSANPHEENPARGYIVSANFQPLSPTGMQIPGYYNPAERGQELNRQLSDSSIKWDLAASKALQLSTQTDYAPSILRPLIPVLRSAISDPDELALVERLASWKGDYPVDSVGATLFN”, the protein production is reported as “failed”.
With “MSFSDSESSSHGGGGGDYKFFRQISRDRLLHEMLGSTKTGDSKAWKILIMDRVTVKVMSQSCKMADITDQGISLVEELFKRREPMPGMDAIYFIQPSKENIVMFLSDMSGREPLYRKAFIFFSSTIPKELVNHIKSDSSVLPRIGALREMNMEYFPIDNQGFLTDHEQALETLYAEDAENSRHFHICLNIMATRIATVFASLKELPFVRYRAAKSTASRDLVPSKLAAAIWDCISKYKAIPNFPQTETCELLIVDRSVDQVLRLIYYIYSSSPY” the protein production was “failed”.
With “MHSNSWMSCKAVDNAEKEALLLQLQADADGPRRRCEIRERSLGQAVMLALLSLLLVLLGGWLASLPSAWQLRSAQLWFWLPGALMLGAGLVGLAAAEALRRRHGQQVLALTPDTLQFANAPDPTPWVCFDGFELEQRYLSLGLVFSVIAGSRAPALAPACFKSLAAPHAWPVAAGMRVRLWLFNPMLDGQRLDFQALTDLLYAYLNAAQARSTLGQLFPEVQRVGATQ” the protein production was “failed”.
With “MIVGRDGVGVVEHAEQGPRIAVAVVTMGNRPAEVDALLASVAKQDLPPARIVIVGNGCPLPEFARRLDLPGEVTGIEVDENLGCPGGRNVALAKLREFGDVDVVVELDDDGLLVDADVLRRVRDLYAADPRLGIVGFRIADENGETQRRHVPRVGKSDPLRGGPVTGFLGGGHALSMAMLARTGDWPAEFFFAHEETDLAWRATDAGWTILYAPELLLQHPKTSPARHAIYHRVTARNRVWLARRRLPLPLIPVHLGIWIAVTLVRTRSAGGLRAWFGGFMEGVRTSGGERRPMRWRTVWRLTRLGRPPVILEHHHHHH” the protein production was “failed”.
In the case of “SASRGKTETSKLKQNLEEQLDRLMQQLQDLEECREELDTDEYEETKKETLEQLSEFNDSLKKIMSGNMTLVDELSGMQLAIQAAISQAFKTPEVIRLFAKKQPGQLRTRLAEMDRDLMVGKLERDLYTQQKVEILTALRKLGEKLTADDEAFLSANAGAILSQFEKVSTDLGSGDKILALASFEVEKTKK”, the protein production is reported as “not failed”.
In the case of “MEKYNSLSDFLKEFYIPTYVLSAETEEEEEEESRPTPASPVLVFINSKSGGQLGGELILTYRSLLNHNQVFDLDQETPDKVLRRIYLNLERLKDDDFARQIREKLKIIVAGGDGTAGWLLGVVCDLKLSHPPPIATVPLGTGNNLPFAFGWGKKNPGTDRTAVESFLEQVLKAKVMKIDNWHILMRMKTPKEGGSCDPVAPLELPHSLHAFHRVSPTDELNKEGCHTFRGGFWNYFSLGMDAQISYAFHSERKLHPEKFKNQLVNQSTYVKLGCTQGWFCASLFHPASRNIAQLAKVKIATRNGQWQDLHIPHSIRSIVCLNLPSFSGGLNPWGTPNPRKQRDRGLTPPFVDDGLIEVVGFRNAWHGLVLLAPNGHGTRLAQANRIRFEFHKGATDHTFMRMDGEPWKQPLPLDDETVMVEISHLGQVNMLATHDCRSRSVFDPSTPRHQDGAEDYDDNEDDSVAEGEEFRKFGAADTFKIPDEGEHSNKKGRASRRRNSNVHGWSHVL”, the protein production is reported as “not failed”.
With “MKAVVMAGGEGTRLRPMTANQPKPLLPVVNRPIMEHVLRLLKRHGFEDTVVTVQFLATLIRNYFGDGEELGMSLRYVAEEVPLGTAGSVKNAEEHLRGEPFIVISGDALTDIDLTDMVRFHRENGALVTIGLKRVANPLEFGIIIVDDNGRIQRFLEKPTWGQVFSDTVNTGIYIMEPEVLDHVAPGENVDWSGDVFPKLLKAGAPLYGYIADGYWEDVGTHESYLRAQADVLSGKVDVEIDGFEVSPGIWVAEGAEVDPEAVLKGPLYIGDYAKVEPGAELREFTVLGSNVVVRSEAFLHRAVVHDNVYVGTRANLRGCVVGKNTDIMAGVRIEEGTVVGEECVLESEAYLANNIKVYPFKTIEAGAVVNTNVIWESKGQRSLFGPRGVSGLINVEITPELAVRLASAYATTLKKGAVVTTARDASRAARTLKRAVISALTAAAINVQDLEATPLPLARFHTSQPGLSGGIALRTTPGDPQSVDIVFLDSSGADLSPAAQRKLERVFSRQEYRRAFPGEIAELSFPSRSVEAYTRELLQSIDLSGVAEANLKVVVDCAGGTGSLILPALLSQIDADVLTVNNRLDEASPTDTPAKRTRDLQRLGELVASARADFGVRFDPVGERIQLVDGSGTLVDDERALLVVLDLVAAERQGGRVALPVTTTRVAEQVANRHGVDVQWTPTSLDALTKAALADDIIFAADGRGGFILPEFSRTCDGIAAFVRLIGLVARTKMSLSQIDQRIPQAHLLRRSVPTPWAVKGSVMREVVEAAQGREIDTTDGVRVIEPDGSWALVLPDTAEAVTHLWAEGPDDETAQRLLEEWSAVVERAEG” the protein production was “failed”.
With “VDVENPILITSFPGIGLVGTIATAHYIMELKLESIGIVDSRLLPPVASLYEGVILPPVRVYQSADLGFVLIHSDVPIIPQAAIDMSKKIVQFAAEINARRVYSFAGVATFEDKKRVFAAATSKELLEEVKDHAEIFKTGTISGIAGSIMNECVAAKMPGIVLLGETLGFNPDPRAAASLIEAVNKIMNWNVSVEKLLKEAEMIEAQMQKLAEQARMQEERKEEFPMYG” the protein production was “failed”.
For “MLDNAIPQGFEDAVELRRKNRETVVKYMNTKGQDRLRRHELFVEDGCGGLWTTDTGSPIVIRGKDKLAEHAVWSLKCFPDWEWYNIKVFETDDPNHFWVECDGHGKILFPGYPEGYYENHFLHSFELDDGKIKRNREFMNVFQQLRALSIPVPQIKREGIPT”, the protein production was “not failed”.
With “MQPFLFSDSSACLHVSPAMKISVIIPVYNDPSGIDATLRSVMEQDHSDYEVIPVDNNSTDRTPAVIREWAHQYPNRIRPASEHDTQSSYAARNAGIEAAQGEILVFIDADMAAPSYWLTDVHEAFSASEADYLGYEVDVYVPEDEAGFWGWYDTVMGLPSRYHYDEKQFVPTSCLAVRRAVFEKVGRFDETAVSGGDKEFGERVHRHPDLTTAFRDDIVVCHPARTTFEAHRAKALRVGRGLARLCDPSTASGDTTSVLIELLLHAVPPDPRRVAEQAHDVPAHQFLRLYIADWILRYLRLYGALTYCRKEAPE” the protein production was “failed”.
For “MSDLINIQKKLLPDVLMIMQKRYQILRSIYFSEPVGRRTLAGMLGMSERVLRGEVEFLKAQGLVEIASSGMTVTKEGLVVFRDLENVMNQLSGLHSMEEQLAKKLQIKKCLVVQGDSDDTPWVREEMGRVAVEQLDMALTEKRNIVAVMGGSTMATVAEMMTTDFAKGRELLFVPGRGGIGEDLDNQANTICDKMATKTNTKHRVLYVPEQLGEEAYRSLLKEPAIQEGLRLVQSANAIILGIGDALAMAKRRHTGEDVLEKIIRRKAVGEAFGYYFDEQGEVVHKVPTFGLQFEDLAQIPHIIAVAGGTSKAKAIKSYMKSAPKNTILITDEGAAKSLLKGSNTLLK”, the protein production was “failed”.
